Results as given in paper PMC6754583.

Target: full-length von Willebrand factor (VWF) dimer, hetero-bifunctional construct (UniProt P04275)
Test: magnetic tweezers single-molecule force spectroscopy

## full-length von Willebrand factor (VWF) dimer, hetero-bifunctional construct (from UniProt P04275 764-2813; P04275 764-2813) (natural protein)
  mean dwell time between stem transitions (fits to individual datasets): 0.28 s
  mean dwell time between stem transitions (global fit): 0.28 s
  midpoint force F1/2 of stem opening: 1 pN
